Assay results as given in US20160039896A1 (Stanford University, published 2016).

Experiments:
[1] = target: U87MG human glioblastoma cells; test: flow cytometry titration on U87MG cells, anti-FLAG detection
[2] = target: VEGFR2 and αvβ3 integrin on HUVEC; test: flow cytometry titration on HUVEC (VEGFR2 and αvβ3 integrin), anti-FLAG detection
[3] = target: VEGFR2 and αvβ3 integrin on SVR angiosarcoma cells (murine); test: flow cytometry titration on SVR murine angiosarcoma cells (VEGFR2 and αvβ3 integrin), anti-FLAG detection
[4] = target: VEGFR2 and αvβ3 integrin on HUVEC; test: cell-based or functional assay
[5] = target: T1, recombinant human VEGFR2 extracellular domain (human, UniProt P35968 20-764); test: yeast surface display of individual clones, soluble VEGFR2
T1 construct: extracellular domain; Bought (Calbiochem); also called KDR; Flk-1
T1 sequence (P35968 20-764): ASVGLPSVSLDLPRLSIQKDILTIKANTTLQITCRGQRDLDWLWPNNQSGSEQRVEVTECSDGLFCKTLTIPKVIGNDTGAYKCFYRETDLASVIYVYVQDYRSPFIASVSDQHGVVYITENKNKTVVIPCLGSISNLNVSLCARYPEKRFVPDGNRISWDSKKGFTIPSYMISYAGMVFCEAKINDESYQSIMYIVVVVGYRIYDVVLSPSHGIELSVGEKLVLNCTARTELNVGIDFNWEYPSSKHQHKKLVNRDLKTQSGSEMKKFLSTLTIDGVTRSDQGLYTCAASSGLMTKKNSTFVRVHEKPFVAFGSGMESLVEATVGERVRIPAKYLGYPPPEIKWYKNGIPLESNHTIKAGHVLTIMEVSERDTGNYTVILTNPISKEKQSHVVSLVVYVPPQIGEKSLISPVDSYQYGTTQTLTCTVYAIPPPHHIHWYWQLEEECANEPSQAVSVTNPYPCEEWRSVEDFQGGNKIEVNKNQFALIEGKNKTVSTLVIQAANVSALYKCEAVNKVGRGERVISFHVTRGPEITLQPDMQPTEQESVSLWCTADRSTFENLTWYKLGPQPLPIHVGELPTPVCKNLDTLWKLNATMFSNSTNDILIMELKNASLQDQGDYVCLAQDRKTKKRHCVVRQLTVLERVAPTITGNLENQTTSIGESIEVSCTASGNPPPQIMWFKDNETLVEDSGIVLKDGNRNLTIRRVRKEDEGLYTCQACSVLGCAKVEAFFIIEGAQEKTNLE

Binder | Kd [1] | Kd [2] | Kd [3] | inhibition of VEGF-induced autophosphorylation of VEGFR-2 in HUVEC, in the presence of vitronectin [4] | binding result [5]
scVEGFrgd-7P (ligand) EVVKAMDVYQRSYCHPIETLVDIFQEYPDEIEYIFKPSCVPLMRCGGCCNDAGLECVPTEESNITMQIMRIKPHQGQHIGEMSFLQHNKCECRPKKDGSTSGSGKSSEGKGEVVKFMDVYQRSYCHPIETLVDIFQEYPDEIEYAFKPSCVPLMRCGGCCNDEGLECVPTEESNITMQIMRPASRGDSPPHIGEMSFLQHNKCECRPKKDTR | 29 nM | 45 nM | 31 nM | – | –
scVEGFrgd-7B-K (ligand, built from the parts; F17A, E64A and I46A are kept because the RGD libraries were made from scVEGFmut) EVVKAMDVYQRSYCHPIETLVDILQEYPDEIEYIFKPSCVPLMRCGGCCNDAGLECVPTEESNITMQIMRIKPYQGQHIGEMSFLQHNKCECRPKKDGSTSGSGKSSEGKGEVVRFMDVYQRSYCHPIETLVDIFQEYPDEIEYAFKPSCVPLMRCGGCCNHEGLECVPTEESNITMQIMRPHDRGDAGVHIGEMSFLQHNKCECRPKED | – | – | – | – | binds
scVEGFrgd-7B-A (ligand, built from the parts; F17A, E64A and I46A are kept because the RGD libraries were made from scVEGFmut) EVVKAMDVYQRSYCHPIETLVDILQEYPDEIEYIFKPSCVPLMRCGGCCNDAGLECVPTEESNITMQVMRIKPYRGQHIGEMSFLQHNKCECRPKKDGSTSGSGKSSEGKGEVVKFMDVYQRSYCHPIETLVDIFQEYPDEIEYAFKPSCVPLMRCGGCCNNEGLECVPTEESNITMQIMRPHDRGDAGVHIGEMSFLQHNKCECRPRKD | – | – | – | – | binds

Now from value to binder:

Kd [1] | Kd [2] | Kd [3] | inhibition of VEGF-induced autophosphorylation of VEGFR-2 in HUVEC, in the presence of vitronectin [4] | binding result [5] | Binder
15.6 nM | 12 nM | 18 nM | – | – | scVEGFrgd-7H (ligand) EVVKAMDVYQRSYCHPIETLVDIFQEYPDEIEYIFKPSCVPLMRCGGCCNDAGLECVPTEESNITMQIMRIKPHQGQHIGEMSFLQHNKCECRPKKDGSTSGSGKSSEGKGEVVKFMDVYQRSYCHPIETLVDIFQEYPDEIEYAFKPSCVPLMRCGGCCNDEGLECVPTEESNITMQIMRPGGRGDSAYHIGEMSFLQHNKCECRPKKDTR
13.9 nM | 6 nM | 37 nM | 80% | – | scVEGFrgd-7I (ligand) EVVKAMDVYQRSYCHPIETLVDIFQEYPDEIEYIFKPSCVPLMRCGGCCNDAGLECVPTEESNITMQIMRIKPHQGQHIGEMSFLQHNKCECRPKKDGSTSGSGKSSEGKGEVVKFMDVYQRSYCHPIETLVDIFQEYPDEIEYAFKPSCVPLMRCGGCCNDEGLECVPTEESNITMQIMRPSVRRGDSPASHIGEMSFLQHNKCECRPKKDTR
– | – | – | – | binds | scVEGFrgd-7B-C (ligand, built from the parts; F17A, E64A and I46A are kept because the RGD libraries were made from scVEGFmut) EVVKAMDVYQGSYCHPIETLVDILQEYPDEIEYIFKPSCVPLMRCGGCCNNAGLECVPTEESNITMQIMRIKPYQGQHIGEMSFLQHNKCECRPKKGGSTSGSGKSSEGKGEVVKFMDVYQRSYCHPIETLVDIFQEYPDEIEYAFKPSCVPLMRCGGCCNHEGLECVPTEESNITMRIMRPHDRGDAGVHIGEMSFLQHNKCECRPKRD
